Measured values: patent US20240327530A1 (ICHNOS SCIENCES, published 2024)

Columns and labels:
[1] = target: T1, Recombinant cynomolgus monkey IL-1RAP-ECD(S21-E359)-avi-his protein (cynomolgus monkey, UniProt P59822 21-359 (rhesus entry)); assay: SPR, biotinylated cyno IL-1RAP-avi-his captured, Fab as analyte, 1:1 fit
T1 construct: also called cyno IL-1RAP-ECD-Avi-His; recombinant cynomolgus monkey IL-1RAP-avi-his protein
T1 sequence: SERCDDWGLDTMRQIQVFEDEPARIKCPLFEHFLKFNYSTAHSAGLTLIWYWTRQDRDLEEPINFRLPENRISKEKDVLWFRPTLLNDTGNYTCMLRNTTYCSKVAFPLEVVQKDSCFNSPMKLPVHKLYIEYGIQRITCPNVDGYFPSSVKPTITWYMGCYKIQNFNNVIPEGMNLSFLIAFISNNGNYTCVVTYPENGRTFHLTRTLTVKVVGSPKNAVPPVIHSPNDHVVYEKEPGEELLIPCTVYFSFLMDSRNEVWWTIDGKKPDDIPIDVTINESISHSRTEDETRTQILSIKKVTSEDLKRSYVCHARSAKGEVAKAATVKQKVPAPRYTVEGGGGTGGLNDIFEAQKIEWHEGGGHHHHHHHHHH
Protocol: (§1) Surface plasmon resonance (SPR) was used to measure the binding affinities of the Fab fragments for human, cynomolgus monkey and/or mouse IL-1RAP. Affinities were measured on a BIACORE™ T200 instrument (BIACORE™, GE […]®) at 25° C. and analyzed with the BIACORE™ T200 Evaluation Software (v3.1). Measurements were performed on Series S CM5 sensor chips (BIACORE™ T200, BIACORE™, GE […]®, catalog no. BR100530) coupled with anti-human IgG Fc (BIACORE™, GE […]®, catalog no. BR100839) using a commercial amine coupling kit (BIACORE™, GE […]®, catalog no. BR100050) or on Series S BiotinCAPture chips (BIACORE™, GE […]®, catalog no. 28920234). SPR measurements were performed with commercially available recombinant human IL-1RAP Fc fusion protein (Acrobiosystems, catalog no. ILP-H5256) and recombinant mouse IL-1RAP Fc fusion protein (Sino Biologicals, catalog no. 52657-M02H) or with biotinylated recombinant cynomolgus monkey IL-1RAP-avi-his protein produced in-house (SEQ ID NO. 2).
(§2) The affinities to human, cynomolgus monkey and mouse IL-1RAP were assessed by immobilizing IL-1RAP and using Fab fragments as analyte. Around 100 RU of human or mouse IL-1RAP Fc fusion protein were captured on fc2 of a Series S CM5 sensor chip coupled with anti-human IgG Fc and around 150 RU of biotinylated cynomolgus monkey IL-1RAP protein were captured on fc2 of a Series S BiotinCAPture chip. Fab fragments were injected in single cycle kinetic at different concentrations ranging from 7.8 to 500 nM, in HBS-EP+ buffer (BIACORE™, GE […]®, catalog no. BR100669) at a flow rate of 30 μl/min for 3 min on fc1 and fc2 (fc1 being used as reference). Dissociation was monitored for 5 min. After each cycle, the surface was regenerated with 60 μl of regeneration solution provided with anti-human IgG Fc capture kit (BIACORE™, GE […]®, catalog no. BR100839) or BiotinCAPture kit (BIACORE™, GE […]®, catalog no. 28920234) respectively. Experimental data were processed using the 1:1 Langmuir kinetic fitting model. Measurements included zero-concentration samples for referencing. Chi², U- and residual values were used to evaluate the quality of a fit between the experimental data and individual binding models.

[2] = target: T1, Recombinant cynomolgus monkey …; assay: SPR, Fab as analyte
Protocol: as §1
(§3) The affinities to human, cynomolgus monkey and mouse IL-1RAP were assessed by immobilizing IL-1RAP and using Fab fragments as analyte. […] Dissociation was monitored for 5 min. […]

[3] = target: T2, Recombinant mouse IL-1RAP Fc fusion protein (Sino Biologicals, catalog no. 52657-M02H) (mouse, UniProt Q61730 21-350); assay: SPR, mouse IL-1RAP-Fc captured, Fab as analyte, 1:1 fit
T2 construct: Bought; not shown: Fc part of the bought fusion protein
T2 sequence: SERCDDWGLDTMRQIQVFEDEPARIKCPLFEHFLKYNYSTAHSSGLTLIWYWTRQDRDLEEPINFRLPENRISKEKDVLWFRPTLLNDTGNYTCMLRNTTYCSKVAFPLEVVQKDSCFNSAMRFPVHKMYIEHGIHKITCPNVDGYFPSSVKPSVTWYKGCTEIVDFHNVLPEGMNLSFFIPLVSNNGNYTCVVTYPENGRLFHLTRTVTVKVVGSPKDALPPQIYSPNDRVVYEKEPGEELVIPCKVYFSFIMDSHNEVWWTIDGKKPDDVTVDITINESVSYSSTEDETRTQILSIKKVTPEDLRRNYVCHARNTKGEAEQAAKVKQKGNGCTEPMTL
Protocol: as §1, §3

[4] = target: T3, Recombinant human IL-1RAP Fc fusion protein (Acrobiosystems, catalog no. ILP-H5256) (human, UniProt Q9NPH3 21-359, limits assumed); assay: SPR, human IL-1RAP-Fc captured, Fab as analyte, 1:1 fit
T3 construct: Bought; not shown: Fc part of the bought fusion protein
T3 sequence: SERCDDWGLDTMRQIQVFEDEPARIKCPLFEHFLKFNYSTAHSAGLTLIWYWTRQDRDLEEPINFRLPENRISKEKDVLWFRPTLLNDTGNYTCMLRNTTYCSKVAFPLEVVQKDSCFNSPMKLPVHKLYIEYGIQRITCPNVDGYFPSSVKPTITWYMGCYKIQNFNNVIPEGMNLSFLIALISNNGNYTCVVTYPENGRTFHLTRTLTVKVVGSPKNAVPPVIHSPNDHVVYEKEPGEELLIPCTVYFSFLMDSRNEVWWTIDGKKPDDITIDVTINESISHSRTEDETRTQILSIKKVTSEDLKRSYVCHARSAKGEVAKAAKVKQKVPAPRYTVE
Protocol: as §1, §2

[5] = target: T1, Recombinant cynomolgus monkey …; assay: SPR, biotinylated cyno IL-1RAP-avi-his captured, Fab as analyte
Protocol: as §1, §3

[6] = target: T2, Recombinant mouse IL-1RAP Fc fusion …; assay: SPR, mouse IL-1RAP-Fc captured, Fab as analyte
Protocol: as §1, §2

Row | Binder | Kd [1] [nM] | fold lower affinity than to human IL-1RAP [2] [fold] | Kd [3] [nM] | Kd [4] [nM] | binding result [5] | binding result [6]
1 | Anti-IL-1RAP-UCP02-C3-Fab (Fab, V domains shown, also called anti-IL-1RAP-C3; anti-IL-1RAP-C3 Fab) VH: EVQLLESGGGLVQPGGSLRLSCAASGFTFRDYAMGWVRQAPGKGLEWVSAISYDGEGTLYADSVKGRFTISRDNSKNTLYLQMNSLRAEDTAVYYCARFRYYTAFDYWGQGTLVTVSS VL: not shown | 110 | ~40 | 0.63 | 2.8 | – | –
2 | Anti-IL-1RAP-UCP04-C1-Fab (Fab, V domains shown) VH: EVQLLESGGGLVQPGGSLRLSCAASGFTFSAYTMSWVRQAPGKGLEWVSAISYEGDGTLYADSVKGRFTISRDNSKNTLYLQMNSLRAEDTAVYYCARSLYWSGFDYWGQGTLVTVSS VL: not shown | – | – | 3.54 | 16 | no binding (tested: 7.8 to 500 nM Fab) | –
3 | Anti-IL-1RAP-UCP02-B5-Fab (Fab, V domains shown) VH: QVQLVQSGAEVKKPGSSVKVSCKASGGYFSAYIISWVRQAPGQGLEWMGGIVPQYGYATYAQKFQGRVTITADESTSTAYMELSSLRSEDTAVYYCARGRSTTYYGFAYWGQGTLVTVSS VL: not shown | – | – | – | 311 | no binding (tested: 7.8 to 500 nM Fab) | no binding (tested: 7.8 to 500 nM Fab)
